According to article PMC7192382:

What follows are substances tested on MtKNOX3 homeodomain (Medicago truncatula) (assay: SPR). Settings: SPR: PBS (150 mM NaCl, 2 mM Na2HPO4)/Tween pH 7.4, BSA 670 ug/ml, protein 0-10 uM, temperature not stated; EMSA: LightShift binding buffer (stock as printed …).
Work on IPT3-1 (MtIPT3 promoter site) yielded a Kd of 2220 nM. Work on LOG1 (MtLOG1 first intron site) yielded a Kd of 555 nM. Substance LOG2-1 (MtLOG2 promoter site) has a Kd of 28000 nM.
